In the DeepSol protein solubility set:

Assay: soluble on expression in E. coli; label from the status in PepcDB or PDB records

Row | Sequence | soluble on expression in E. coli
1 | MSQSRHRAEAPPLEREDSGTFSLGKMITAKPGKTPIQVLHEYGMKTKNIPVYECERSDVQIHVPTFTFRVTVGDITCTGEGTSKKLAKHRAAEAAINILKANASICFAVPDPLMPDPSKQPKNQLNPIGSLQELAIHHGWRLPEYTLSQEGGPAHKREYTTICRLESFMETGKGASKKQAKRNAAEKFLAKFSNISPENHISLTNVVGHSLGCTWHSLRNSPGEKINLLKRSLLSIPNTDYIQLLSEIAKEQGFNITYLDIDELSANGQYQCLAELSTSPITVCHGSGISCGNAQSDAAHNALQYLKIIAERK | soluble
2 | MARGPKKHLKRLAAPKAWMLDKLGGVFAPRPSTGPHKLRESLPLLIFLRNRLKYALNGAEVTKIVMQRLVKVDGKVRTDPTYPAGYMDVITLEKTGEFFRLVYDVKGRFVIHRISAEEAKYKLCKVKKTQLGAKGVPFLVTHDGRTIRYPDPLIHANDSVQVDIASGKITDYIKFDSGNLCMITGGRNLGRVGTVVNRERHPGSFDIVHIKDSQGHVFATRLTNVFIIGKGNKPYISLPKGKGVKLSIAEERDKRLAAKTH | not soluble
3 | MGHEAKHPIIIGITGNIGSGKSTVAALLRSWGYPVLDLDALAARARENKEEELKRLFPEAVVGGRLDRRALARLVFSDPERLKALEAVVHPEVRRLLMEELSRLEAPLVFLEIPLLFEKGWEGRLHGTLLVAAPLEERVRRVMARSGLSREEVLARERAQMPEEEKRKRATWVLENTGSLEDLERALKAVLAELTGGAKEGRG | soluble
4 | MSLNKKIIFFDIDGTLLVHNGKESTIPYSTKEALKKLKEKGHNLFICSGRPIRFAIQEFQEMVDGYICCNGTYIVYNGKCIYNKLIDKDTLKYLIKEFCKLGISASFSGAYNGYSYNMSSEKIHQMNRFYKTENPYILDNWNIEEIEANNVDVFFKNNEHMEKCIKYLEHKLIFNTHKPYLSADVSFKNWDKSKGIEYLVKYMKRDMKDTMAFGDGKNDITMLKTVNIGIAMGNAVDEVKNKADMVTDSAADDGIYNALNKLHLIEGHHHHHH | soluble
5 | KAGQVDTNDLWSSIPVSPDEYITQRLPILVARMREQWSNNDHVKRYIDLCRRNIVGPRGIVMQAQSRKSRSGALDTAINDAIETWWQDWGRKGQCEVTGKLSWREIQTLCVETCARDGEFIARKIYGTHAGPHGFCLQLIDPLRLPVRYQMLKTDQTGGFVRQGIEFNRFGKPLAYHFSSIDERDTYYYSINGRGYIRVPAEEVIHIFKPVMVGQRRGLPWAATSLLRLHHLQGFEEAAVQNARAAASKMGFVCYPEGVGPRADEQENVAQTIQMNAGPLAIHELPQGAEFQDWNPQYPSGEFGLFTKAAKQSLAAGMDLSYHALSGDLADVNYSSIRQGTLDERERWKEDQQ | not soluble
6 | IGYWHYDADTDTATWSKGLFKILGLPPSNVALNYSSFLDLVHPNDKAGLKNVVEKALKEKEDYDYELRVRNGDNDYKWYRTIARANPHK | not soluble
7 | MLEEYEKKRDFNKTSEPPARGEEKNSDKPVFVVQRHDATNLHYDFRLEMDGVLKSWAVPKEPPKSPGTRRLAIETEDHPLGYADFEGEIPEGQYGAGRVEIWDRGTFELLKRNEKEIIITLHGEELEGDYVLIKTKYGKEDKGWLFFKKKTGLEHHHHHH | soluble
8 | REHDFDDLKFEHFLASAAGAFPAFLEVAEKRIIGEGVLRAVKESMRWHRAENVHFGAFLLLVPLISSWDAGGMVDIAEAARNRLRRTDFRDSLSVLEAFRLSNARVVEAGELNLKDRKTEEEIAQKKINLYEWMKMAPEENLIARELVDGFKISIEGAKFLLSFGNSGKAVVELYYHLLSKFPDPLVIAKMGREYAEKITEWAEKARTEEERKELDEKLLKDGANPGTIADLTASSIFLALAEGWR | soluble
9 | MATAATTASRSTTAGTSSTMGTPATTSAASRTTTTGTTTTMGQLIT | not soluble
10 | MGSDKIHHHHHHMTSHRAEFPIKLRFLFEPARYKILYGGRGGAKSWGVARALLIQAAATPLRILCVREFQNSIVESVHHLLKAQIEAIGLNSFYEVHNNVIRGINGSEFIFAGLHSNVTRIKSFEGVDRVWVEEAQTVSKTSWDTLIPTIRKEGSEIWVTYNPELNTDETHQRFVVNPPAGAVVVKINWNDNPWFPEILRREKDGLKARDPDAYQNVWEGNCRVTLEGAVYAKELRLAQEEGRIRSVPYDEAKPVHTFFDLGWADNTSIWFAQTVGNELRLIDYYSNSQMPIQHYIGVLQNKGYMYGTDWLPHDARARTLATGRSVEEIMLAAGRKVRIVPNLSIHDGINAARTIFPRCYFDEQNCAEGLQSLRHYRFDVDRDSGQFSARPLHDYHSHAADAFRYFAMAIEEDKPAASARGINMKGWRA | not soluble
11 | MAKQTIIVMSDSHGDSLIVEEVRDRYVGKVDAVFHNGDSELRPDSPLWEGIRVVKGNMDFYAGYPERLVTELGSTKIIQTHGHLFDINFNFQKLDYWAQEEEAAICLYGHLHVPSAWLEGKILFLNPGSISQPRGTIRECLYARVEIDDSYFKVDFLTRDHEVYPGLSKEFSR | soluble
12 | ADPWQECMDYAVTLARQAGEVVCEAIKNEMNVMLKSSPVDLVTATDQKVEKMLISSIKEKYPSHSFIGEESVAAGEKSILTDNPTWIIDPIDGTTNFVHRFPFVAVSIGFAVNKKIEFGVVYSCVEGKMYTARKGKGAFCNGQKLQVSQQEDITKSLLVTELGSSRTPETVRMVLSNMEKLFCIPVHGIRSVGTAAVNMCLVATGGADAYYEMGIHCWDVAGAGIIVTEAGGVLMDVTGGPFDLMSRRVIAANNRILAERIAKEIQVIPLQRDDED | soluble
13 | MAFTEHSPLTPHRRDLCSRSIWLARKIRSDLTALTESYVKHQGLNKNINLDSADGMPVASTDQWSELTEAERLQENLQAYRTFHVLLARLLEDQQVHFTPTEGDFHQAIHTLLLQVAAFAYQIEELMILLEYKIPRNEADGMPINVGDGGLFEKKLWGLKVLQELSQWTVRSIHDLRFISSHQTGIP | soluble
14 | MALLLVMGIPASGKSTFRRKIQTAHRELLESTSFDDFRMMRTRSSDKNARQTRKSFECHVESCISESTSKIYVIEDIFYLKSMRHPFQKIAKRHGLQFGIIFLKVGIVEALRRNSHRTGIEKQKNETIRKIFEKMEDPDEILENSIVLETDEVEIDVEVVMNKLKFDFTAKKPIVPEVSLKKSHIQKPPPPSKLESLDVLTRRLVSELMQNDKTMNGRKLSDARKKLLIDLSGNLEISNENDPKFLYDLKLKLIEFYDK | not soluble
15 | GHRVWIMYAQPYQVTLQEQQQELAQLEMARSALDSLSELICLQDCQGNLLTTNRAFDQFWEGRREEAITATASRVATRKSERKWTTDTQGRSCLLEVNLSSLVSPS | not soluble
16 | MGSDKIHHHHHHMKFKTVGNPNGPKILLIHPMFATSECFVNLVEYLKEDYFVITPTLDGHDINENSIFLSVEDEGNKVLAYLKDNSIKELDFMLGTSLGAIIAFEIYKRNEIRINKVYLDGGPFFKFGALLQKVAAKKFCNICSEVRQNPQKAINKIERLFKGLGNEMCEVACHITEESIKNLAHACYSFTLPNLKPVEQKSVVFLYGTKEPARFCIFRLRKYKYSRIIKKNGFSHCGYLLSYPKEYAEMLKENTQ | not soluble
17 | SLQCLRFAGAATHPAQAPCMPGPACEPVETFLKTCQAPGSEPTGAASLRAKYLPPSTASIRVSAGLLRAALEDSHSGFHLCSATLRWLLAENAAVDVVRAQTLSSIQGIAPDGTDVNLTVHEVAVTDLSPAGPIQAVEIQVESSSLANMCRAHHAIIRRIQTMVTEQAALGSSPPDLRMQYLQQIHANHQELLREVQALRDQLCTEDELSSCSTAQKLLHIYKQLRNPSLVLL | not soluble
18 | MKKYQQLAEQLREQIASGIWQPGDRLPSLRDQVALSGMSFMTVSHAYQLLESQGYIIARPQSGYYVAPQAIKMPKAPVIPVTRDEAVDINTYIFDMLQASRDPSVVPFASAFPDPRLFPLQQLNRSLAQVSKTATAMSVIENLPPGNAELRQAIARRYALQGITISPDEIVITAGALEALNLSLQAVTEPGDWVIVENPCFYGALQALERLRLKALSVATDVKEGIDLQALELALQEYPVKACWLMTNSQNPLGFTLTPQKKAQLVALLNQYNVTLIEDDVYSELYFGREKPLPAKAWDRHDGVLHCSSFSKCLVPGFRIGWVAAGKHARKIQRLQLMSTLSTSSPMQLALVDYLSTRRYDAHLRRLRRQLAERKQRAWQALLRYLPAEVKIHHNDSGYFLWLELPEPLDAGELSLAALTHHISIAPGKMFSTGENWSRFFRFNTAWQWGEREEQAVKQLGKLIQERL | not soluble
